Test results reported in patent US20230391865A1 (University of California, published 2023).

B1: Anti-TSPAN3 M1 clone monoclonal antibody (antibody, IgG1, V domains shown)
VH: QVQLQQPGAELVKPGASVKLSCKASGYTFTSYWMHWVKQRPGQGLEWIGMIHPNSGSPNYNERFKSKATLTVDKSSSTAYMQLSSLTSEDSAVYFCARWGDGYHRYFDVWGTGTTVTVSS
VL: DIQMTQSPASLSASVGETVTITCRASGNIHNYLAWYQQKQGKSPQLLVYNAKTLADGVPSRFSGSGSGTQYSLKINSLQPEDFGSYYCQHFWSTPPYTFGGGTKLEIK
notes: Mouse hybridoma clone (CD-1 library); isotype IgG1, kappa; also called Clone 1 (TSPAN3-C - M1)
B2: Anti-TSPAN3 M5 clone monoclonal antibody (antibody, IgG2b, V domains shown)
VH: EVQLQQSGPELVKPGASVKMSCKASGYTFTDFYMHWVKQSHGRSLEWIGYIYPHNGFTKYNQSFMGKATLTVNKSSNTAYMELRSLTSEDSAVYYCARRYGDYWGQGISVTVSS
VL: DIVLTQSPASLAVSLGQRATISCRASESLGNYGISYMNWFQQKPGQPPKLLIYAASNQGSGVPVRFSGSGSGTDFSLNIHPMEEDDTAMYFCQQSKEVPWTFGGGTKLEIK
notes: Mouse hybridoma clone; isotype IgG2b, kappa; also called Clone 5 (TSPAN3-C - M5)
B3: Anti-TSPAN3 M6 clone monoclonal antibody (antibody, IgG2b, V domains shown)
VH: EVQLQQSGPELVKPGASVKMSCKASGYTFTDFYMHWVKQSHGRSLEWIGYIYPHNGFTKYNQSFMGKATLTVNKSSNTAYMELRSLTSEDSAVYYCARRYGDYWGQGISVTVSS
VL: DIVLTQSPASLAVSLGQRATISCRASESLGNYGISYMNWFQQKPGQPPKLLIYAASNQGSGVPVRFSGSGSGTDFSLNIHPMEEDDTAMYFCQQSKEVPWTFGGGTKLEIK
notes: Mouse hybridoma clone; isotype IgG2b, kappa; also called Clone 6 (TSPAN3-C - M6)
B4: Anti-TSPAN3 M3 clone monoclonal antibody (antibody, V domains shown)
VH: QIQLVQSGPELKKPGETVKISCKASGYTFTTYGMSWVKQAPGKGLKWMGWINTYSGVPTYADDFKGRFAFSLETSASTAYLQINNLKNEDTATYFCARSHYSNFYAMDYWGQEPQSP
VL: DIVMTQSHKFMSTSVGDRVSITCKASQDVGTAVAWYQQKPGQSPKLLIYWASTRHTGVPDRFTGSGSGTDFTLTISNVQSEDLADYFCQQYSSYPLTFGAGTKLELK
notes: Mouse hybridoma clone; isotype IgM, kappa; also called Clone 3 (TSPAN3-C - M3)

Molecular target: T1, human Tetraspanin-3 (TSPAN3) (human, UniProt O60637 1-253)
T1 construct: whole, on cells; also called human TSPAN3; cell surface expressed TSPAN3
Test: flow cytometry (FACS) on TSPAN3-expressing cells
Description: Using the hybridoma technology, i.e., fusing the antibody-producing B-cells harvested from the immunized mice with myeloma cells, two hybridoma fusion libraries were generated three days later (one from the reactive NZBW mouse and one from the two pooled reactive CD-1 mice), and then retested for reactivity to surface-expressed human TSPAN3.

T1 sequence (O60637 whole entry): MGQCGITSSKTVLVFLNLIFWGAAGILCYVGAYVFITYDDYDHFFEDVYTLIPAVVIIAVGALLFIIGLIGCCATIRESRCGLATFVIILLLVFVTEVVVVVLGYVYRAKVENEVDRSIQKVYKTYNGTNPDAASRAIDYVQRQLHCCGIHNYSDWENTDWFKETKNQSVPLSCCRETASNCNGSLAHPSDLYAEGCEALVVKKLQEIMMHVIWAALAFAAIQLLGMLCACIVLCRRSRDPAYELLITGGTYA

| Binder | % Gated [%] | Median Fluorescence Intensity (MFI) |
| --- | --- | --- |
| B1 | 59 | 290 |
| B2 | 73 | 529 |
| B3 | 69.5 | 308 |
| B4 | 60.7 | 284 |
